Measurements taken from US20190016760A1 (Sanofi, published 2019).
Like-named read-outs stand apart in the source and are kept apart here.

Key:
[1] = target: the molecule itself
[2] = target: the molecule itself; remark: listed apart in the source
[3] = target: the molecule itself; remark: listed apart in the source

B1: Shigella flexneri MxiH protein fused to the lamprey VLR-B antibody C-terminal domain SEQ ID NO: 2, with GGSLE linker and 6xHis tag (other)
chain: MSVTVPNDDWTLSSLSETFDDGTQTLQGELTLALDKLAKNPSNPQLLAEYQSKLSEYTLYRNAQSNTVKVIKDVDAAIIQNFRNCTSIQERKNDGGDCGKPACTTLLNCANFLSCLCSTCALCRKRGGSLEHHHHHH
notes: also called MxiH-lamprey-His
- binding result [1]: binds

B2: Shigella flexneri MxiH protein fused to the lamprey VLR-B antibody C-terminal domain SEQ ID NO: 2, expressed in E. coli (other)
chain: MSVTVPNDDWTLSSLSETFDDGTQTLQGELTLALDKLAKNPSNPQLLAEYQSKLSEYTLYRNAQSNTVKVIKDVDAAIIQNFRNCTSIQERKNDGGDCGKPACTTLLNCANFLSCLCSTCALCRKR
notes: The expected monomer weight is 13.86 kDa; Found in the insoluble fraction; also called MxiH-lamprey
- binding result [2]: binds

B3: Shigella flexneri IpaD protein fused to the lamprey VLR-B antibody C-terminal domain SEQ ID NO: 2, expressed in E. coli (other)
chain: MNITTLTNSISTSSFSPNNTNGSSTETVNSDIKTTTSSHPVSSLTMLNDTLHNIRTTNQALKKELSQKTLTKTSLEEIALHSSQISMDVNKSAQLLDILSRHEYPINKDARELLHSAPKEAELDGDQMISHRELWAKIANSINDINEQYLKVYEHAVSSYTQMYQDFSAVLSSLAGWISPGGNDGNSVKLQVNSLKKALEELKEKYKDKPLYPANNTVSQEQANKWLTELGGTIGKVSQKNGGYVVSINMTPIDNMLKSLDNLGGNGEVVLDNAKYQAWNAGFSAEDETMKNNLQTLVQKYSNANSIFDNLVKVLSSTISSCTDTDKLFLHFNCTSIQERKNDGGDCGKPACTTLLNCANFLSCLCSTCALCRKR
notes: also called IpaD-lamprey
- binding result [3]: binds
